Results published in the nanobody polyreactivity screen of Harvey et al. (2022).

Assay: yeast display, Sf9 membrane polyspecificity reagent, FACS + sequencing; frameworks hold sequencing errors
Method in brief: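 In a synthetic yeast display library (Saccharomyces cerevisiae BJ5465), nanobody expression was induced with galactose for 36–48 hours. FACS gates were set low and high (top ~1%) using anti-HA fluorescence for expression and streptavidin fluorescence for binding of the Sf9 membrane reagent. Each polyreactivity label is drawn from the gate of origin.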

| Sequence | polyreactivity (PSR sort gate) |
| --- | --- |
| QVQLVETGGGLVQAGGSLRLSCAASGRIFVGYAKGWYRQAPGKERELVAAISARGGSTYYADSVKGRFTISRDNAKNTVYLQMNSLKPEDTAVYYCAADEASSRGYYDYDYWGQGTQVTVSS | low polyreactivity |
| QVQLVETGGGLVQAGGSLRLSCAASGRTFAYNAMGWYRQAPGKARELVAAITGSGGRTYYADSVKGRFTISRDNAKNTVYLQMNSLKPEETAVYYCAAEGPEIKYYYWGQGTQVTVSL | low polyreactivity |
| QVQLVETGGGLVQAGGSLRLSCAASGRTFAYYAMGWYRQAPGKERELVAAISSGGRTNYADSVKGLFTISRDNAKNTVYLQMNSLKPEDTAVYYCAAVRWVYPRRYYYWGQGTQVTVSS | high polyreactivity |
| QVQLVETGGGLVQAGGSLRLSCAASGRTFEYNAMGWYRQAPGKERELVATIRYSGTSTYADSVKGRFTISRDNAKNPVYLQMNSQKPEDTAVYYCAKQVRYYGYKYNYWGQGTQVTVSS | high polyreactivity |
| QVQLVETGGGLVQAGGSLRLSCAASGRTFQYYAMGWYRQATGTERELVAAITSGGSTYYADSVKGRFTISRDNAKKTVYLQMNSLKPEDTAVSYCAATFYYSGHDDYWGQVTQVTVSS | low polyreactivity |
| QVQLVETGGGLVQAGGSLRLSCAASGRTFYYNGRGWYRQAPGKERELVAAITSGGTTSYADSVKGRFTISRDNAKNTVYLQMNSLKPEETAVYYCNADYWAVNYDYWGQGTQVTVSS | low polyreactivity |
| QVQLVETGGGLVQAGGSLRLSCAASGRTLSQNTMGWNRQAPRKEREFVASITYSGGITYYADSVKGRFTISRDNAKNTVYLQMNSLKPEDTAVYYCNKRGSHYWYSYPGDYWGQGTQVTVSS | low polyreactivity |
| QVQLVETGGGLVQAGGSLRLSCAASGRTYLIYAMGWYRQAPGKERELVAAIRDRGATTYYADSVKGRFTISRDNAKNTVYLQMNSLKPEETAVYYCAARNGAYPALKEGDYWGQGTQVTVSS | high polyreactivity |
| QVQLVETGGGLVQAGGSLRLSCAASGSIADVYAMGWYRQAPGKERELVAAITSGASTYYADSVKGRFTISRDNAKNTVYLQMNSLKPEDTAVYYCTKSAAITGNGHMDYWGQGTQVTVSS | low polyreactivity |
| QVQLVETGGGLVQAGGSLRLSCAASGSIFFLYAMGWYRQAPGKERELVAAISRTGSTYADSVKGRLTISRDNAKNTVYLQMNSLKPEDTAVYYCDAEYRYYWYGTMNYWGQGTQVTVSS | low polyreactivity |
| QVQLVETGGGLVQAGGSLRLSCAASGSIFIYYAMGWYRQAPGKERELVAAIRLSSGSTYYADSVKGRFTISRDNSKNTVYLQMIRLKPEYTAVYYCAARRKRPFSVYDHWGKGTQVTVSS | high polyreactivity |
| QVQLVETGGGLVQAGGSLRLSCAASGSIFLGNAMGWYRQAPGKERELVAAISGGDSTNYADSVKGRFTISRDNAKNTVYLQMKSLKPEDTAVYYCNALTHWAPASYEYDYWGQCTQVTVSS | low polyreactivity |
| QVQLVETGGGLVQAGGSLRLSCAASGSIFTPYAIGWYRKAPGKDRELVAAITSRGGTTYYADSVKGRFTISRDNAKNTVYLQMNSLKPEDTAVYYCAAEYYHLYYYQFDYWGQGTQVTVSS | high polyreactivity |
| QVQLVETGGGLVQAGGSLRLSCAASGSIFVYYAMGWYRQAPGKERELVAAISSRGGRTYYADSVKGRFTISRDNAKHTVYLQMNSLIPEDTAVYYCAASPDYSRYWVYAPNRRLGYWGQGTQVTVSS | high polyreactivity |
| QVQLVETGGGLVQAGGSLRLSCAASGSISPINAMGWYRQPPGKERELVAAINGGGSTYYADSVKGRFTISRDNAKNTVYLQMNSLKPEDTAVYYCSRDALHYAGSLHRYGYWGQGTQVTLSS | low polyreactivity |
| QVQLVETGGGLVQAGGSLRLSCAASGSTFEYYAMGWYRQAPGKERELVAAISSGPSTTYADSVKGRFTISRDNAKNTVYLQMNSLKPEDTAVYYCARRDGTTQALFGYDYWGQGTQVTVSS | low polyreactivity |

| Sequence | polyreactivity (PSR sort gate) |
| --- | --- |
| QVQLVETGGGLVQAGGSLRLSCAASGSTFGYYAMGWYRQAPGKERELVAAITSGGSTYYADSVKGRFTISRDNAKNSVFLQMNSLKPEDTAVYYCAATWYGFAYDYWGQGTQVTVSS | low polyreactivity |
| QVQLVETGGGLVQAGGSLRLSCAASGSTFYPTYAMGWYRQAPGKERELVATITGSGGSTYYADSVKGRFTISRDNAKNTVYLKMNSLKPEDTAVYYCAADRWYSRYTRYGYWGQGTQVTVSS | low polyreactivity |
| QVQLVETGGGLVQAGGSLRLSCAASGSTFYRYAMGWYRQAPGKERELVAAITRSGGGTHYADSVKGRFTISRDNAKNTVYLQMNSLKPEDTAVYYCAKRQSGYRYDYWGQGTQVTVSS | low polyreactivity |
| QVQLVETGGGLVQAGGSLRLSCAASGSTLTYYTMGWYRQAPGKERELVARISWSSGRTYYAVSVKGRFTISRDNAMNTVYLQMNSLKPEDTAVYYCNADRTYYRGLDYWGQGTQVTVSS | high polyreactivity |
| QVQLVETGGGLVQAGGSLRLSCAASGYIFYPYTMGSYRPAPGKATELVAAITWSGSTYSADSVQGRFTMSRDTAKNTVYLQMKSLKPEDTAVYYCAADFDSYDSYTYLQYDYWGQGTQVTVSS | low polyreactivity |
| QVQLVETGGGLVQAGGSLRLSCAASVIISSVYAMGWYRQAPGNERELVAAISGSGGSTYYADSVKGRFTISRDNAKNTVYLQMISLKPEDTAVYYCAKGYQYQGNSYGYWGQGTQVTVSS | low polyreactivity |
| QVQLVETGGGLVQAGGSLRLSCAATEFIFRNYDMGWYRQAPGKERELVASISRGTSTNYADSVKGRFTISRDNAKNTVYLQKNSLKPEDTAVYYCNKRFYYHPFDYWGQGSQVTVSS | high polyreactivity |
| QVQLVETGGGLVQAGGSLRLSCAATGFTFGYYTMGWYRQAPGKEGELVAAITWRGGSTYYADSVKGRFTISRDNAKNTVYLQMNSLKPEDTAVYYCNAVVLGYYPSGVYPDDEEHDYWGQGTQVTVSS | high polyreactivity |
| QVQLVETGGGLVQAGGSLRLSCAATGLIFYSYPMGWYRQAPGKERELVAALNGGGGSTYYADSVKGRFTISRDNAKNTVYLQMKSLKPEDTAVYYCAADLYNRGRGSSQSYRTGYDYWGQGTQVTVSS | high polyreactivity |
| QVQLVETGGGLVQAGGSLRLSCAPSGFTFRRNAMGWYRQAPGKERELVAVITSSARTNYADSVKGRFTISRDNAKNTVYLQMNSLKPEDTAVYYCAARYHYGVWRERHGYWGQGTQVTVSS | high polyreactivity |
| QVQLVETGGGLVQAGGSLRLSCASSGFIFVRYAMGWYRQAPGKERELVAAITKGGGRTYYADSVKGRFTISRDNAKNTVYLQMNSLKPEDTAVYYCATAGAHGRERDYWGQGTQVTVSS | high polyreactivity |
| QVQLVETGGGLVQAGGSLRLSSAASGGIFSPNAMGWYRQAPGKEREFVAAISSNGGSTNYADSVKGRFTISRDNAKNTVYLQMNSLKPEDTAVYYCAADYPDHPLWGPEYDYWGQRTQVTVSS | low polyreactivity |
| QVQLVETGGGLVQAGGSLRLSSAGSGSISYAYAMGWYRQARGKEREFVAAITDSGGSTYYADSVKGRFTISRDNAKNTVYSQMNSLKPEDTAVYYCAAGGPWWSGYYYWGQGTQVTVSS | low polyreactivity |
| QVQLVETGGGLVQAGGSLRVSCAASGSIFVGYPMGWYRQAPGKERELVAAISSNGGSTYYADSVKGRFTISRDNAKNTVYVQMNSLKPEDTAVYYCAAGVRRVYASGHGAYGYWGQGTQVTVSS | low polyreactivity |
| QVQLVETGGGLVQAGGSLSLSCAASGYIFEINAKGWYRQAPGKERELVADIRRGDSTNYADSVKGRFTISRDNSMNTVYLQMNSLKPEDTAVYYCAAYHRLFDYDYCGQGTQVTVSS | high polyreactivity |
| QVQLVETGGGLVQAGGSLSLSCAGSVSTFWFYPMGCYRQATGKEREFVATISRSGGSTHNADSVKGRFTISSDNAKNTVYLQMNSLKPEDTAVYYCAKYQRYYSNDYNYWGQGTQVTVSS | high polyreactivity |
